In paper PMC7279886, “A non-linear system patterns Rab5 GTPase on the membrane” (eLife, 2020):

Columns and labels:
Conditions in all cases: both partners purified
[1] = molecular target: T1, Rabex5 (Bos taurus, UniProt O18973 1-492); experiment: HDX-MS; Rabex5/Rabaptin5 premixed with Rab5:GDP, ternary complex diluted into deuterated buffer without GTPγS, 1, 5 and 15 min, 22 °C
T1 construct: Rabex5, Bos taurus, 57 kDa Vps9 domain containing GEF for Rab5; The His tag served for capture in the co-purification and was then cut with 3C protease; also called Rabex5-6xHis

[2] = molecular target: T2, Rabex5/Rabaptin5 complex (Bos taurus | human, UniProt O18973 1-492; Q15276 1-862); experiment: as above
T2 construct: Rabex5, Bos taurus, 57 kDa Vps9 domain containing GEF for Rab5; Rabaptin5, human, 99 kDa; also called GEF/effector complex; not shown: GST, N-terminal, cleaved; copies: 2 + 2

[3] = molecular target: T3, Rabaptin5 (human, UniProt Q15276 1-862); experiment: HDX-MS; Rabex5/Rabaptin5 premixed with Rab5:GDP, ternary complex diluted into deuterated buffer with GTPγS, 1, 5 and 15 min, 22 °C; uptake compared with the sample without GTPγS
T3 construct: Rabaptin5, human, 99 kDa; GST served for capture in the co-purification and was then cut from the resin with GST-3C protease; also called GST-Rabaptin5; not shown: GST, N-terminal, cleaved
T3 sequence (looked up): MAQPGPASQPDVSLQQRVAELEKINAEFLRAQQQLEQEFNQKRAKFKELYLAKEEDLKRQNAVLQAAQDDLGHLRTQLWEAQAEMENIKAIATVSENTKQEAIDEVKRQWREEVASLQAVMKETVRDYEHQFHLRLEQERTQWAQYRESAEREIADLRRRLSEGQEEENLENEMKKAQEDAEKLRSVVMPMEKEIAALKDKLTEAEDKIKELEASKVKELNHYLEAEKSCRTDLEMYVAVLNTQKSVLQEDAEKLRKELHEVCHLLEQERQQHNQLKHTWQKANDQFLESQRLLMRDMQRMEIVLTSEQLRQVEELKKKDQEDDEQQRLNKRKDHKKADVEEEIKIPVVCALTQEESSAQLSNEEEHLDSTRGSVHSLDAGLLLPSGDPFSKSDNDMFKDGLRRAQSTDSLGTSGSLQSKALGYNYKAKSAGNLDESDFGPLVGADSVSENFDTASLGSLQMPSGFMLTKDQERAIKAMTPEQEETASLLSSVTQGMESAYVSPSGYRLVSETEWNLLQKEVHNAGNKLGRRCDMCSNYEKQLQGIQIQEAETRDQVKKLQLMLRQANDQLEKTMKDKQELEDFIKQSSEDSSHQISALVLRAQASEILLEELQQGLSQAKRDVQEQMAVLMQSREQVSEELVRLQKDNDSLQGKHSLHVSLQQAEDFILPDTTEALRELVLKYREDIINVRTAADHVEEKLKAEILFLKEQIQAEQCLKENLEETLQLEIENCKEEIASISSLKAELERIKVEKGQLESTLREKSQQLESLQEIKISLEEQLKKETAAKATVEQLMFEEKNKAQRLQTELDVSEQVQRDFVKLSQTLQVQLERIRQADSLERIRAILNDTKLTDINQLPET

T1 sequence (O18973 whole entry, the tested form may be a part): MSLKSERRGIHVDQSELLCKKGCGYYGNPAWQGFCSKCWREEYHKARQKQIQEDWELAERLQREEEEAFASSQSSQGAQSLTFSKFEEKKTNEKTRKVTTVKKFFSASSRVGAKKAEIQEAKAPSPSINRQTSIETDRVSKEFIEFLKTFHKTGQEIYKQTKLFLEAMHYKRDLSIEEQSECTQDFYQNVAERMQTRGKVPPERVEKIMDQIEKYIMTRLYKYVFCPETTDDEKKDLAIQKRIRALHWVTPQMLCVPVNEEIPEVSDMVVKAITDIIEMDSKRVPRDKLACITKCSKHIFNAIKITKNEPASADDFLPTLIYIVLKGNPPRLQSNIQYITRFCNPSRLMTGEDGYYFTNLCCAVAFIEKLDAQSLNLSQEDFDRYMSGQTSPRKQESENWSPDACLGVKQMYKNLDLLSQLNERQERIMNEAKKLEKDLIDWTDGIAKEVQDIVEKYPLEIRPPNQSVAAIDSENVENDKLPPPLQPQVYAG
T2 sequence (O18973 whole entry, the tested form may be a part, one chain of several): as the sequence (O18973 whole entry, the tested form may be a part) above

binding result [1]: binds
binding result [2]: binds
binding result [3]: binds
B1: Rab5 (natural protein, human, UniProt P20339 1-215, looked up)
chain: MASRGATRPNGPNTGNKICQFKLVLLGESAVGKSSLVLRFVKGQFHEFQESTIGAAFLTQTVCLDDTTVKFEIWDTAGQERYHSLAPMYYRGAQAAIVVYDITNEESFARAKNWVKELQRQASPNIVIALSGNKADLANKRAVDFQEAQSYADDNSLLFMETSAKTSMNVNEIFMAIAKKLPKNEPQNPGANSARGRGVDLTEPTQPTRNQCCSN
notes: Rab5a, human; Rab5 as used in the HDX-MS experiment, printed there without GFP; also called Rab5a; Rab5:GDP; source: Sf9, purified (Ni-NTA, SEC)
